One data set concerns the target T1, SOX2 (Homo sapiens, UniProt P48431).
T1 construct: endogenous in cells; host or cells: nuclear extract of GSC7 and GSC328 (patient-derived glioblastoma stem cell lines)
The data set can be described thus: Biotinylated enhancer pull down with nuclear extract and mass spectrometry. The data set is classed as binding. As to conditions: normalised to random sequence 599. The procedure:
The oligo was PCR-amplified using biotinylated primers. The PCR product was then SPRI purified to remove biotinylated primer dimers. These dsDNA fragments were incubated with nuclear extract from GSC7 and GSC328. They were then bound to streptavidin magnetic beads, washed three times and the frozen beads were sent for mass spectrometry analysis.
All the buffers were prepared the day before, passed through a […] filter (except the dialysis buffer) and left at 4° C. overnight. DTT and protease inhibitors were added just before use. The cells were scraped on the media and collected on 50 ml falcons, which were spun at 1350 rcf 5 minutes at 4° C. The pellet was resuspended in 50 ml of ice cold PBS, an aliquot was taken for cell counting, and spun again spun at 1350 rcf 5 minutes at 4° C. The pellet was then resuspended in 5 ml per 40 million cells of ice cold buffer A (10 mM HEPES pH 7.9, 1.5 mM MgCl2, 10 mM KCl, 0.5 mM DTT, protease inhibitors (Complete, Roche, 11697498001)) and incubated on ice for 10 min. The cell suspension was transferred to a glass Dounce homogenizer and dounced 40 times on ice. The cell suspension was transferred to a falcon and centrifuged at 1350 rcf for 10 min at 4° C. […] The supernatant was collected into new 1.5 ml tubes and quantified (Pierce BCA Protein Assay Kit, Thermo Scientific, Cat 23225). […]

For data set [1], the system named is GSC7 cells. The data set can be described thus: Nano-Glo Dual-Luciferase Reporter (Nanoglo DLR) enhancer assay in GSC7. In kind it is cell-based, human. From the text:
We chose an arrayed library format, with 160 bp enhancer fragments individually cloned into separate plasmids and arrayed in 96 well plates. These 160 bp were synthesized as a single pool of oligos, then randomly cloned into the plasmid and isolated. 20 bp×2 were needed for PCR amplification of the pool and so a library of 200 bp fragments was synthesized (Twist Biosciences). To meet our oligo synthesis strategy, ChIP-seq peaks expressed by GSCs were merged into a single oligo. This oligonucleotide pool was PCR-amplified (using limited cycles to reduce bias and ‘jackpot’ products meaning products which are easier to amplify will overtake the oligonucleotide pool) and cloned into the expression vector by an efficient Golden Gate reaction. 4579 individual plasmids were then randomly picked, isolated and plated as an arrayed plasmid DNA library on 96 well plates (×48). The bacterial colony picking and production of plasmid minipreps were supported by the Edinburgh Genome Foundry (S. Rosser). This library was then screened using the optimised Nanoglo DLR assay (Nano-Glo Dual-Luciferase Reporter Assay, Promega) in 384 well format. Each plate was transiently transfected together with PGK-FFLuc in a 1:10 ratio into GSC7 cells. 2 days later a Nanoglo DLR assay was performed and assayed on a plate reader.
Cells were seeded in 384 well plates using a multidrop and transfected the following day using the CyBio Felix. Two days later the experiment was terminated with a Nanoglo DLR assay and all hits with a fold change to mCMV greater than 10 were Sanger sequenced and mapped back to the genome.
(§1) Cells were seeded at the required density. The following day the transfection was carried out. For this the Plus reagent and Lipofectamine LTX (Life Technologies, 15338030) were each diluted in half the volume of Opti-MEM I Reduced-Serum Medium (further referred to as Optimem) (Life Technologies, 31985062). Following this step, the Plus reagent/Optimem premix was added to all DNA samples followed by the Lipofectamine LTX/Optimem premix. The transfection mix was incubated for 5 min at room temperature and then carefully dropped on the cells. Generally, no media change was carried out. Cells were analysed two days following transfection.
This assay consists of two steps. […] First, the Firefly Luciferase activity is measured which allows to normalise to transfection efficiency. In a second step, the activity of Nanoluc is determined which is the readout of the plasmid of interest. […] 20 μl cell lysate in 96 well format or 25 μl cell lysate in 384 well format was then transferred into the corresponding opaque white plate and luminescence was measured at for 0.1 s per well using the Ensight Multimode Plate Reader. […] Nanoluc activity was measured for 0.1 s per well, again using Ensight Multimode Plate Reader. […]
(A reporter such as luciferase makes a cellular process visible.)

In data set [2] the test system is GSC7 cells. The data set can be described thus: Flow cytometry of mNGreen reporter in GSC7. The data set is classed as cell-based, human. How it is done: as §1
For flow cytometry, cells were detached, pelleted and resuspended in an appropriate volume of flow cytometry buffer (1% BSA in PBS, v/v). Cells were stained with Draq7 (Abcam, ab109202, f.c. 0.1 μM) as a live/dead stain and analysed using the BD LSRFortessa cell analyser (4 lasers, BD Bioscience). Analysis of flow cytometry data was carried out in the FlowJo Analysis software (FlowJo, version 10.6.2).

Data set [3] has as its system patient-derived glioblastoma cell lines. Description: SSE-7 mCherry expression across patient-derived glioblastoma cell lines. The data set is classed as cell-based, human. From the text:
The experiment described in Example 8 was repeated in five patient-derived glioblastoma cell lines (E17, E21, E28, E31, E34).

T1 sequence (P48431 whole entry): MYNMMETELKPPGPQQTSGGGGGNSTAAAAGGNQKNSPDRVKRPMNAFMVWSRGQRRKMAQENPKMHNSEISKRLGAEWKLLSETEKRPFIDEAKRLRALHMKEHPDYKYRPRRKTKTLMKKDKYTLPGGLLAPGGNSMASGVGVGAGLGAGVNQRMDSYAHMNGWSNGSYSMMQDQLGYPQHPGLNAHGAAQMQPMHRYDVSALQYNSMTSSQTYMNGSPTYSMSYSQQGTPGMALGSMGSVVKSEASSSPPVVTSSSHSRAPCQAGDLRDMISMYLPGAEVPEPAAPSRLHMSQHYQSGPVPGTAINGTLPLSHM

B1: ID1101: enhancer fragment, SEQ ID NO: 4 (nucleic acid)
DNA: GTGAGTGTGACTCACATGCTGGCATCAGAGCCCCTCTTAGAGCTTAGAACACTGGGCCTCTGTCAGGCAAAGAAAAGGAGTCCCTATGAATAGCCATCTCCACAAATAGCAGTTACTGTCACTTCTTAAAAGACACAAGCATGGCTGGAGACCGGCACTG
Consider B1, for which the figures for the “SOX2 enrichment in pull down (mass spectrometry)” value with SOX2 (G7 nuclear extract) and with SOX2 (GSC328 nuclear extract) were 4.4 fold and 23 fold, respectively.

B2: SSE-5: synthetic super-enhancer ID2706_ID3547_ID3548_ID3146, SEQ ID NO: 68 (nucleic acid)
DNA: CCAATGCCAAAGCAGTTTACATTTTACAGATGCCATGGCAACCGTCAGGAAGTTACCCTGTATGGTCTAAGAGGGGGAGGAACCCTCAGTTCCGGGAATTGCCCGCCCCTTTCCCGGAAACTCATGAATAATCCACCCCGTTCCCCCTTAACAAAAGCCACCTCCTCCCTCCTGAAAGGCACCATTGGTCACCAAAACAAGTCCCCTTTGTCCTCCACCGCAGCTGGAGCCTGGGCCTTCCATCTCCTGGGGGCCAATAAAACCCCAGATCAGCCAATCCTCCCTCCCTGGCTCTGTCATCCAAACACTCCCCTGCAACAGATGTACACACAGAGCCCATTGTTTTCTCTAGAAATGTAAACTGCACGTCACAGTTACTCCATACACACCACAAACAGACTCCCTTTGTTCTCAGGATATGTGTTGACACAAGAATATGTCATCCTCTCAGCTCCAGACTGAAAGAGATGGGTGTGTGGGAGTGGGGGAAGCTGAGCTCCAGGCAGACAGCACAGAGCCGCCTTGTCCAACCCAGCCAGGTGCCATGGCAACCAACAAAGGCCCCATTGTCCCGTGTCTGCTGGGCCTTCCTGAGGCTCTGGGGTCAGAGTCCCGGTT
Consider B2, for which the “activity compared with full CMV by Nanoglo DLR assay” value with GSC7 cells [1] is recorded as “higher than CMV”. Also, in the data set on GSC7 cells [2], the “activity compared with full CMV by flow cytometry” value is listed as “higher than CMV”.

B3: SSE-7: synthetic super-enhancer ID4310_ID4428_ID0785_ID3836, SEQ ID NO: 70 (nucleic acid)
DNA: TTGTCCTGCCTTTGAGAACACTGGAAGGGCACTGAAGGCTGACCAGCATGCACCTCACCCCACCTCCTCTCTGTCTCATCCTCAGCCATCTAAGCGGGAGACTCATCAGGCTTAAATTCTCATTCTTATCCAAGATTCTTCTGCTTCAAATGAGTCTAAATGGAGATCCTCCCATAAAGGGAGTTCTGTTTGGGCTTCCCTTGGAAGTCCATTGAAAGCGTTTCACATTTCAATGCTTCTTTACATTCTCCTCTAGAATGAATCTGGAAGGGCCATTTCATTCCAGCCCTATCAGATTTACTACTTCCTCCTGTAAGAATGAACTGGGCCCAGCTGGGCATTTGCATCAAAGTGCCTCACCAGAGTTCCCAGCTGCTCTGGCAGAGTGCCCAGGCTTGCCCCAGAGCCCAAACAGAATGCTCTTTGAGATGCCTCTGGTTTTCATACCCTTCCAGGGGAGCAGTTTCCTGGCTGTGTCGTCAGATACTGTGGTTTACGCTGTTCCGGAGTCTGGAGGTCTGTGTGCCTTTGATCTCTTTCCCAACTAATTTGCACAGCTGCTGTGGAGGCCCTCATGAATGACCTCTTTCTTTCCTTTCT
On to B3, for which the “activity compared with full CMV by flow cytometry” value in the data set with GSC7 cells [2] was “higher than CMV”. In addition, the mCherry expression result is “lower frequency of expression” in data set [3] (E21, E31 and E34); “highly expressed and comparable to full-length CMV” in data set [3] (GSC7, E17 and E28).

(Values after patent US20240092847A1, “FUNCTIONAL NUCLEIC ACID MOLECULE AND METHOD” (The University Court of The University of Edinburgh, priority 2021, published 2024).)
